The text below walks through data of patent publication US8765908B2, “Compositions for improving bone mass” (The UAB Research Foundation, priority 2010, dated 2014).

Numbering of substitutions follows the chain as printed. Entries after “also recorded” stand apart in the source; their conditions may differ.

Format in all cases: binding
Test [1] has as its target T1, RANK fragment 498-556 (Myc-RANK) (Mus musculus, UniProt O35305).
T1 construct: expressed in transfected cells; host or cells: 293T cells
T1 sequence (O35305 498-556): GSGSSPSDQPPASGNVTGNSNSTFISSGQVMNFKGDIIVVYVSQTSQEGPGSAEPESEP
The test is described as follows: Co-immunoprecipitation with Myc-RANK in 293T cells. To be noted: cotransfection with Myc-RANK in 293T cells; IP then Western blot. As to the method: (§1) 293T cells were cultured in DMEM containing 10% heat-inactivated fetal bovine serum (HI-FBS) and penicillin/streptomycin (culturing medium). Cells grown near confluence were lifted and replated at density of 5×10^6 cells/dish in 100-mm tissue culture dishes the day before transfection. Total 8 μg plasmid was transfected into 293T cells using Lipofectamine™ in combination of Plus® Reagent (Invitrogen). Briefly, 8 μg plasmid was mixed with 20 μl Plus®Reagent before addition of 350 μl DMEM. The mixture was incubated at RT for 15 min and then added with 380 μl freshly prepared Lipofectamine™ Reagent (Lipofectamine™ Reagent+350 μl DMEM). The complete transfection solution was further incubated at RT for 15 min before being added to one dish of 293T cells which was washed with DMEM twice immediately before the addition of the solution. The cells were incubated at 37° C. for 3 hrs before addition of 6.5 ml culturing medium and the incubation continued overnight. […]
As such, the potential of RYBP as a signaling molecule interacting with the IVVY (SEQ ID NO:4) motif was examined to regulate osteoclastogenesis. […] It was then determined whether the interaction between the RANK fragment and RYBP seen in yeast also occurs in mammalian cells. the cDNA region encoding the bait was cloned into pCMV-Myc vector (BD Biosciences Clontech) to generate Myc-RANK (FIG. 1C). […]
In general terms: Immunoblotting shows a protein as a band on a membrane.

Test [2] has as its target T2, Myc-mRANK (RANK fragment with IVVY to IVAF inactivating mutation) (Mus musculus, UniProt O35305, V537A/Y538F).
T2 construct: expressed in transfected cells; host or cells: 293T cells
T2 sequence (O35305 498-556 V537A/Y538F): T1 sequence (O35305 498-556) with V40A, Y41F
The test is described as follows: Co-immunoprecipitation with Myc-mRANK in 293T cells. To be noted: cotransfection with Myc-mRANK; IP anti-Myc, WB anti-HA. The procedure:
as §1, with “overnight. Next day, the medium containing the DNA/transfection reagents was replaced with fresh culturing medium.” for “overnight.”
Next, it was determined whether the IVVY (SEQ ID NO:4) motif in the RANK region is specifically responsible for interaction with RYBP. […] Cell lysates were coimmunoprecipitated with anti-Myc antibody and then the precipitates were analyzed by Western analysis with anti-HA antibody.

Test [3] addresses T3, 49-aa RANK segment (residues 498-546) containing the IVVY motif (Mus musculus, UniProt O35305).
T3 construct: expressed in transfected cells; host or cells: yeast strain AH109
T3 sequence (O35305 498-546): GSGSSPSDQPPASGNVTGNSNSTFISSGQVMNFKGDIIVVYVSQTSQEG
Put plainly: Two-hybrid screen of osteoclast precursor cDNA library. As to conditions: yeast AH109, medium stringency. From the text:
An osteoclast precursor cDNA library was constructed using CloneMiner™ cDNA Library Construction System from Invitrogen (Carlsbad, Calif.). Briefly, mRNA was isolated from mouse primary BMMs and used as template for cDNA synthesis. Synthesized cDNA was size fractionated by column chromatography and the desired size of cDNA (>500 bp) was pooled and cloned into pDONOR™222 vector with BP Clonase™ to make Osteoclast Precursor cDNA Entry Library. pGBKT7 AD Vector of MATCHMAKER Two-Hybrid System 3 (Invitrogen) was converted to a Gateway® destination vector using Gateway® Vector Conversion System (Invitrogen). The whole set of cDNA clones was then transferred from the Osteoclast Precursor cDNA Entry Library into the modified pGBKT7 AD Vector to prepare an Osteoclast Precursor Two-Hybrid cDNA Library.
A 49-aa RANK segment (residues 498-546) containing the IVVY (SEQ ID NO: 4) motif (residues 535-538) was used as bait in the two-hybrid screening. A mouse cDNA region encoding this 49-aa RANK fragment was cloned in frame into pGBKT7 DNA-BD Vector of the MATCHMAKER Two-Hybrid System 3 (Invitrogen). The resulting plasmid was named as pGBKT7 DNA-BD-RANK. […]

With “HA-RYBP: full-length RYBP cDNA subcloned into pCMV-HA vector”, the “interaction with RANK (co-IP band)” value in test [1] is on record as “gave rise to a positive band; also recorded: yielded a positive band”. For the same molecule, the “interaction with IVVY-mutated RANK (co-IP band)” value in test [2] is “failed to do so”.

B1: RYBP: RING1A and YY1 binding protein, amino acid sequence SEQ ID NO:2 (protein, listed as Mus sp.)
chain: MTMGDKKSPTRPKRQAKPAADEGFWDCSVCTFRNSAEAFKCSICDVRKGTSTRKPRINSQLVAQQVAQQYATPPPPKKEKKEKVEKPDKEKPEKDKDISPSVTKKNTNKKTKPKSDILKDPPSEANSIQSANATTKTSETNHTSRPRLKNVDRSTAQQLAVTVGNVTVIITDFKEKTRSSSTSSSTVTSSAGSEQQNQSSSGSESTDKGSSRSSTPKGDMSAVNDESF
In the case of B1, the “affinity for the bait (time a clone takes to become blue)” value in test [3] is on record as “highest affinity for the bait”.
